Molecular target: CENP-A nucleosome (CENP-A^Nuc), histone octamer of CENP-A, H4, H2A and H2B wrapped with C0N3 or CEN3 DNA (S. cerevisiae) (UniProt P36012)
Test: SEC-MALS; CENP-A nucleosome (C0N3 or CEN3 DNA), CENP-C, CENP-LN, CENP-OPQU+, CENP-HIK-TW, CBF1 and CBF3^Core mixed at 2 μM; cross-linked with 3 mM BS3; 10 mM Hepes pH 8.0, 80 mM NaCl, 1 mM EDTA, 0.5 mM TCEP

- stoichiometry N: 2
Substance: CCAN, fully assembled (CENP-C, CENP-LN, CENP-OPQU+, CENP-HIK-TW) (from UniProt P35201 1-549; P38265 1-245; P38907 1-458; Q06675 1-368; Q02732 1-369; P53298 1-406; P38313 1-324; Q12493 1-238; Q06162 1-153; Q12262 1-181; Q12748 1-733; P47167 1-239; P43618 1-361; Q2V2P8 1-89) (complex)

— paper PMC10381965
